Measured values: article PMC8873214, “RIOX1-demethylated cGAS regulates ionizing radiation-elicited DNA repair” (Bone Research, 2022)

Biological target: T1, purified K491me-bearing Flag-cGAS (mouse, UniProt Q8C6L5 1-507, monomethyl-lysine at K491)
T1 construct: cyclic GMP-AMP synthase (cGAS), mouse (K491 is the mouse numbering); also called K491me-bearing cGAS; purified Flag-cGAS protein methylated by His-SET7; source: bacterially purified, then methylated in vitro with purified His-SET7
Assay: pull-down; purified Flag-cGAS methylated in vitro by purified His-SET7, incubated with purified SGF29, then with biotin-PAR; streptavidin pulldown, immunoblot; binding of SGF29 read from the loss of PAR-bound cGAS
Conditions: both partners purified

T1 sequence (Q8C6L5 whole entry): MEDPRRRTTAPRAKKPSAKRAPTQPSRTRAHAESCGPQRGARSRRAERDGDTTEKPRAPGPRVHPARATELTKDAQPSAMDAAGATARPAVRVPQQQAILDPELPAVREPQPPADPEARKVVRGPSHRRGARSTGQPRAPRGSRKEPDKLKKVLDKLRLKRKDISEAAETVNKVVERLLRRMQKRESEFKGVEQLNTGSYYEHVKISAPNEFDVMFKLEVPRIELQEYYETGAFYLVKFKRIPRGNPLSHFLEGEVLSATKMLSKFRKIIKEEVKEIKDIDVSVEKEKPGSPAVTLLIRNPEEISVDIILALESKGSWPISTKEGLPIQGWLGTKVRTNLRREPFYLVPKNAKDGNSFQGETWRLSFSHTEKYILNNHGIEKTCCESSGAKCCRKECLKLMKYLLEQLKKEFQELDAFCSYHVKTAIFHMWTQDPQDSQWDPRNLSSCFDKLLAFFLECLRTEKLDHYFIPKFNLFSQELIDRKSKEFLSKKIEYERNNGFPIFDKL

binding result: binds
B1: purified His-SGF29 protein (natural protein, mouse, UniProt Q9DA08 1-293, looked up)
chain: MALVSADSRIAELLTELHQLIKQTQEERSRSEHNLVNIQKTHERMQTENKISPYYRTKLRGLYTTAKTDAEAECNILRKALDKIAEIKSLLEERRIAAKIAGLYNDSEPPRKTMRRGVLMTLLQQSAMTLPLWIGKPGDKPPPLCGAIPASGDYVAKPGDKVAARVKAVEGDEQWILAEVVSYSHATNKYEVDDIDEEGKERHTLSRRRIIPLPQWKANPETDPEALFQKEQLVLALYPQTTCFYRALIHTPPQRPQDDYSVLFEDTSYADGYSPPLNVAQRYVVACKEPKKK
notes: SAGA complex-associated factor 29 (SGF29); mouse and human SGF29 were cloned; also called purified WT SGF29 protein; source: E. coli BL21(DE3), purified
